Measured values reported in article PMC1410913 (Nucleic Acids Research, 2006).

B1: wild-type FokI restriction endonuclease (enzyme, UniProt P14870 1-579, looked up)
chain: MVSKIRTFGWVQNPGKFENLKRVVQVFDRNSKVHNEVKNIKIPTLVKESKIQKELVAIMNQHDLIYTYKELVGTGTSIRSEAPCDAIIQATIADQGNKKGYIDNWSSDGFLRWAHALGFIEYINKSDSFVITDVGLAYSKSADGSAIEKEILIEAISSYPPAIRILTLLEDGQHLTKFDLGKNLGFSGESGFTSLPEGILLDTLANAMPKDKGEIRNNWEGSSDKYARMIGGWLDKLGLVKQGKKEFIIPTLGKPDNKEFISHAFKITGEGLKVLRRAKGSTKFTRVPKRVYWEMLATNLTDKEYVRTRRALILEILIKAGSLKIEQIQDNLKKLGFDEVIETIENDIKGLINTGIFIEIKGRFYQLKDHILQFVIPNRGVTKQLVKSELEEKKSELRHKLKYVPHEYIELIEIARNSTQDRILEMKVMEFFMKVYGYRGKHLGGSRKPDGAIYTVGSPIDYGVIVDTKAYSGGYNLPIGQADEMQRYVEENQTRNKHINPNEWWKVYPSSVTEFKFLFVSGHFKGNYKAQLTRLNHITNCNGAVLSVEELLIGGEMIKAGTLTLEEVRRKFNNGEINF

What was measured:
[1] = target: the molecule itself; test: single-turnover enzyme kinetics
[2] = target: B1; test: steady-state enzyme kinetics

Binder | Kd [1] | Kd [2]
B1 | 0.099 ± 0.019 µM | 
N13Y variant of the FokI endonuclease (enzyme, UniProt P14870 1-579, looked up) MVSKIRTFGWVQYPGKFENLKRVVQVFDRNSKVHNEVKNIKIPTLVKESKIQKELVAIMNQHDLIYTYKELVGTGTSIRSEAPCDAIIQATIADQGNKKGYIDNWSSDGFLRWAHALGFIEYINKSDSFVITDVGLAYSKSADGSAIEKEILIEAISSYPPAIRILTLLEDGQHLTKFDLGKNLGFSGESGFTSLPEGILLDTLANAMPKDKGEIRNNWEGSSDKYARMIGGWLDKLGLVKQGKKEFIIPTLGKPDNKEFISHAFKITGEGLKVLRRAKGSTKFTRVPKRVYWEMLATNLTDKEYVRTRRALILEILIKAGSLKIEQIQDNLKKLGFDEVIETIENDIKGLINTGIFIEIKGRFYQLKDHILQFVIPNRGVTKQLVKSELEEKKSELRHKLKYVPHEYIELIEIARNSTQDRILEMKVMEFFMKVYGYRGKHLGGSRKPDGAIYTVGSPIDYGVIVDTKAYSGGYNLPIGQADEMQRYVEENQTRNKHINPNEWWKVYPSSVTEFKFLFVSGHFKGNYKAQLTRLNHITNCNGAVLSVEELLIGGEMIKAGTLTLEEVRRKFNNGEINF |  | 0.166 ± 0.073 µM
